This note sets out measurements from patent US20220259288A1 (LA JOLLA INSTITUTE FOR ALLERGY AND IMMUNOLOGY, published 2022).

The target of one assay is T1, HLA-DP DPB1*02:01 (human).
T1 chain 1: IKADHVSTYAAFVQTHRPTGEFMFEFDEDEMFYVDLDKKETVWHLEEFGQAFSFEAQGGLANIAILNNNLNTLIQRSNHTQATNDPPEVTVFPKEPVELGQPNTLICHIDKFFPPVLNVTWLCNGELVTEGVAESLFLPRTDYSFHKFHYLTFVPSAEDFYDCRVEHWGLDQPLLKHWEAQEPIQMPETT
T1 chain 2: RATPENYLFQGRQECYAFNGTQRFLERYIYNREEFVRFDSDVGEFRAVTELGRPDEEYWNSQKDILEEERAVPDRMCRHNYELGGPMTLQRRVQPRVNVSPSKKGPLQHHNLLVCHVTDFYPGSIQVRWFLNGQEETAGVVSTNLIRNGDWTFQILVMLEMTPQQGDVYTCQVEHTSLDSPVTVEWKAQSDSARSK
Kind of assay: competition assay.

The next assay addresses T2, HLA-DP DPB1*04:01 (human).
T2 chain 1: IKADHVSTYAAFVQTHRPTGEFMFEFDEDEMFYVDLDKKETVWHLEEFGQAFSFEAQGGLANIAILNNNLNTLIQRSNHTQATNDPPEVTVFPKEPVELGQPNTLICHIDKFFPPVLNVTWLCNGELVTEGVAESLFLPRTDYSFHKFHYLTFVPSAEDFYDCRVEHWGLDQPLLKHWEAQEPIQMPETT
T2 chain 2: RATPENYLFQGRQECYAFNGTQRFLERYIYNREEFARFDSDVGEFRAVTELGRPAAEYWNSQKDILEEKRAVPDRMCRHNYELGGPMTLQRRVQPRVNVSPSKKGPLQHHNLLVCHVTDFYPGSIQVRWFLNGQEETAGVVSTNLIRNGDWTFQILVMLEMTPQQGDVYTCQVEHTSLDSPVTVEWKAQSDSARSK
Kind of assay: competition assay.

For the next assay, the target named is T3, HLA-DRB3*02:02 (human).
T3 construct: MHC class II molecule; how it was prepared for the assay is not described
Kind of assay: HLA class II competition binding assay.

For the next assay, the target named is T4, HLA-DRB1*03:01 (human).
T4 construct: MHC class II molecule; how it was prepared for the assay is not described
Kind of assay: HLA class II competition binding assay.

The next assay deals with T5, HLA-DRB1*01:01 (human).
T5 construct: MHC class II molecule; how it was prepared for the assay is not described
Kind of assay: HLA class II competition binding assay.

The next assay has as its target T6, HLA-DRB1*09:01 (human).
T6 construct: MHC class II molecule; how it was prepared for the assay is not described
Kind of assay: HLA class II competition binding assay.

The target in the next assay is T7, HLA-DRB1*07:01 (human).
T7 construct: MHC class II molecule; how it was prepared for the assay is not described
Kind of assay: HLA class II competition binding assay.

A further assay deals with T8, HLA-DRB1*12:01 (human).
T8 construct: MHC class II molecule; how it was prepared for the assay is not described
Kind of assay: HLA class II competition binding assay.

In another assay the target is T9, HLA-DRB5*01:01 (human).
T9 construct: MHC class II molecule; how it was prepared for the assay is not described
Kind of assay: HLA class II competition binding assay.

The next assay addresses T10, HLA-DRB3*01:01 (human).
T10 construct: MHC class II molecule; how it was prepared for the assay is not described
Kind of assay: HLA class II competition binding assay.

The target in the next assay is T11, HLA-DRB1*13:02 (human).
T11 construct: MHC class II molecule; how it was prepared for the assay is not described
Kind of assay: HLA class II competition binding assay.

For a further assay, the target named is T12, HLA-DRB1*15:01 (human).
T12 construct: MHC class II molecule; how it was prepared for the assay is not described
Kind of assay: HLA class II competition binding assay.

A further assay concerns the target T13, HLA-DRB4*01:01 (human).
T13 construct: MHC class II molecule; how it was prepared for the assay is not described
Kind of assay: HLA class II competition binding assay.

The target of another assay is T14, HLA-DP DPB1*14:01 (human).
T14 construct: its preparation is not described
Kind of assay: competition assay.

The target in a further assay is T15, HLA-DP DPB1*05:01 (human).
T15 construct: its preparation is not described
Kind of assay: competition assay.

Another assay deals with T16, HLA-DQ DQB1*06:02 (human).
T16 construct: its preparation is not described
Kind of assay: competition assay.

The next assay has as its target T17, HLA-DRB1*04:01 (human).
T17 construct: MHC class II molecule; how it was prepared for the assay is not described
Kind of assay: HLA class II competition binding assay.

A further assay concerns the target T18, HLA-DRB1*04:05 (human).
T18 construct: MHC class II molecule; how it was prepared for the assay is not described
Kind of assay: HLA class II competition binding assay.

B1: ApoB100 peptide 3563.0017 (peptide)
peptide: LEVLNFDFQANAQLS
notes: agrees with the claims
Regarding B1, the IC50 was found to be 86 nM with HLA-DP DPB1*02:01 and 191 nM in the assay with HLA-DP DPB1*04:01.

B2: ApoB100 peptide 3563.0015 (peptide)
peptide: LIINWLQEALSSASL
notes: agrees with the claims
Regarding B2, the half-maximal inhibitory concentration (IC50) with HLA-DP DPB1*02:01 was 16300 nM; with HLA-DP DPB1*04:01, 6190 nM.

B3: ApoB100 peptide 3563.0005 (peptide)
peptide: TLTAFGFASADLIEI
As to B3, the 50% inhibitory concentration (IC50) in the assay with HLA-DRB3*02:02 is 18100 nM; with HLA-DRB1*03:01 it was 16400 nM; in the assay with HLA-DRB1*01:01, 60 nM; with HLA-DRB1*09:01, 28 nM; with HLA-DRB1*07:01 it was 33 nM; with HLA-DRB1*12:01 it was 27200 nM. The half-maximal inhibitory concentration (IC50) with HLA-DRB5*01:01 amounted to 276 nM; in the assay with HLA-DRB3*01:01, 99 nM; with HLA-DRB1*13:02 it was 6.1 nM; with HLA-DRB1*15:01, 25 nM.

B4: ApoB100 peptide 3563.001 (peptide)
peptide: PALLALLALPALLLL
notes: label printed as 3563.001
For B4, the half-maximal inhibitory concentration (IC50) in the assay with HLA-DP DPB1*04:01 was found to be 14000 nM. That is a double-digit micromolar value.

B5: ApoB100 peptide 3563.0015 (peptide)
peptide: LIINWLQEALSSASL
For B5, the IC50 with HLA-DRB4*01:01 and with HLA-DRB1*13:02 was 12 nM in each case.

B6: ApoB100 peptide 3563.0008 (peptide)
peptide: VGSKLIVAMSSWLQK
notes: agrees with the claims
As for B6, the half-inhibitory concentration (IC50) in the assay with HLA-DP DPB1*02:01 was found to be 128 nM; with HLA-DP DPB1*04:01, 89 nM.

B7: ApoB100 peptide 3563.0028 (peptide)
peptide: KIVSLIKNLLVALKD
On to B7, for which the figures for the concentration for half-maximal inhibition (IC50) with HLA-DP DPB1*02:01 and in the assay with HLA-DP DPB1*04:01 were 657 nM and 78 nM, respectively.

B8: ApoB100 peptide 3563.0008 (peptide)
peptide: VGSKLIVAMSSWLQK
In the assay with HLA-DRB5*01:01, B8 gave a concentration for half-maximal inhibition (IC50) of 23 nM.

B9: ApoB100 peptide 3563.0003 (peptide)
peptide: QELLDIANYLMEQIQ
In the case of B9, the IC50 with HLA-DP DPB1*02:01 came to 1780 nM; with HLA-DP DPB1*04:01, 2580 nM.

B10: ApoB100 peptide 3563.0004 (peptide)
peptide: DKRLAAYLMLMRSPS
For B10, the concentration for half-maximal inhibition (IC50) with HLA-DP DPB1*02:01 came out at 1680 nM; in the assay with HLA-DP DPB1*04:01, 372 nM.

B11: ApoB100 peptide 3563.0006 (peptide)
peptide: FLHYIFMENAFELPT
Consider B11, for which the IC50 with HLA-DP DPB1*02:01 is 40 nM; with HLA-DP DPB1*04:01 it was 32 nM.

B12: ApoB100 peptide 3563.0018 (peptide)
peptide: SLFFSAQPFEITAST
notes: also called p18
As to B12, the IC50 with HLA-DP DPB1*02:01 came out at 11 nM; with HLA-DP DPB1*14:01, 126 nM; with HLA-DP DPB1*05:01 it was 1480 nM; in the assay with HLA-DQ DQB1*06:02, 895 nM.

B13: ApoB100 peptide 3563.0019 (peptide)
peptide: GKIDFLNNYALFLSP
In the case of B13, the 50% inhibitory concentration (IC50) with HLA-DP DPB1*02:01 amounted to 456 nM.

B14: ApoB100 peptide 3563.0012 (peptide)
peptide: LSQLQTYMIQFDQYI
With B14, the IC50 with HLA-DP DPB1*02:01 was 576 nM; in the assay with HLA-DP DPB1*04:01, 951 nM.

B15: ApoB100 peptide 3563.0014 (peptide)
peptide: HVKHFVINLIGDFEV
Regarding B15, the half-inhibitory concentration (IC50) with HLA-DP DPB1*02:01 came to 58 nM; with HLA-DP DPB1*04:01, 7 nM.

B16: ApoB100 peptide 3563.0030 (peptide)
peptide: FLIYITELLKKLQST
Turning to B16, the half-maximal inhibitory concentration (IC50) with HLA-DP DPB1*02:01 is 96 nM; with HLA-DP DPB1*04:01 it was 215 nM.

B17: ApoB100 peptide 3563.0024 (peptide)
peptide: QEVFKAIQSLKTTEV
Take B17: the results for the concentration for half-maximal inhibition (IC50) with HLA-DP DPB1*02:01 and with HLA-DP DPB1*04:01 were 200 nM and 16 nM, respectively.

B18: ApoB100 peptide 3563.0005 (peptide)
peptide: TLTAFGFASADLIEI
Take B18: the concentration for half-maximal inhibition (IC50) with HLA-DP DPB1*04:01 was 490 nM.

B19: ApoB100 peptide 3563.0016 (peptide)
peptide: GKLYSILKIQSPLFT
For the molecule B19, the IC50 was 9070 nM with HLA-DP DPB1*02:01 and 2100 nM with HLA-DP DPB1*04:01.

B20: ApoB100 peptide 3563.0023 (peptide)
peptide: ILFSYFQDLVITLPF
B20: in the assay with HLA-DRB3*01:01, the IC50 is 71 nM.

B21: ApoB100 peptide 3563.0009 (peptide)
peptide: IKHIYAISSAALSAS
notes: also called p9; P9
Take B21: the IC50 with HLA-DRB3*02:02 was determined as 3.4 nM; with HLA-DRB1*07:01, 77 nM; with HLA-DRB1*15:01 it was 1.1 nM.

B22: ApoB100 peptide 3563.0021 (peptide)
peptide: EGHLRFLKNIILPVY
The molecule B22 registered an IC50 with HLA-DP DPB1*02:01 of 61 nM. This counts as double-digit nanomolar.

B23: ApoB100 peptide 3563.0029 (peptide)
peptide: IDLSIQNYHTFLIYI
B23: the concentration for half-maximal inhibition (IC50) was determined as 23200 nM with HLA-DP DPB1*02:01 and 25000 nM with HLA-DP DPB1*04:01.

B24: ApoB100 peptide 3563.0028 (peptide)
peptide: KIVSLIKNLLVALKD
Turning to B24, the IC50 in the assay with HLA-DRB5*01:01 was found to be 14 nM.

B25: ApoB100 peptide 3563.0003 (peptide)
peptide: QELLDIANYLMEQIQ
B25 showed an IC50 with HLA-DRB3*01:01 of 88 nM.

B26: ApoB100 peptide 3563.0007 (peptide)
peptide: VEFVTNMGIIIPDFA
notes: agrees with the claims
In the assay with HLA-DP DPB1*02:01, B26 gave an IC50 of 12 nM. This counts as double-digit nanomolar.

B27: ApoB100 peptide 3563.0022 (peptide)
peptide: YKKLRTSSFALNLPT
Consider B27, for which the IC50 in the assay with HLA-DP DPB1*02:01 worked out at 3.3 nM; with HLA-DP DPB1*04:01, 2.1 nM.

B28: ApoB100 peptide 3563.0027 (peptide)
peptide: QIHQYIMALREEYFD
In the case of B28, the half-maximal inhibitory concentration (IC50) with HLA-DP DPB1*02:01 turned out to be 80 nM; in the assay with HLA-DP DPB1*04:01, 817 nM.

B29: ApoB100 peptide 3563.0020 (peptide)
peptide: RGLKLATALSLSNKF
As to B29, the IC50 with HLA-DRB1*13:02 worked out at 1.1 nM. This counts as single-digit nanomolar.

B30: ApoB100 peptide 3563.0012 (peptide)
peptide: LSQLQTYMIQFDQYI
For B30, the half-inhibitory concentration (IC50) in the assay with HLA-DRB3*02:02 was 4660 nM; with HLA-DRB1*03:01, 20500 nM; in the assay with HLA-DRB4*01:01, 29 nM; with HLA-DRB1*01:01 it was 157 nM; with HLA-DRB1*09:01, 425 nM; with HLA-DRB1*07:01 it was 14 nM. Moreover, the IC50 with HLA-DRB1*12:01 was 3360 nM; in the assay with HLA-DRB5*01:01, 826 nM; with HLA-DRB1*04:01, 19 nM; with HLA-DRB3*01:01, 1110 nM; with HLA-DRB1*13:02, 35 nM; with HLA-DRB1*15:01, 1.1 nM. Besides, the IC50 in the assay with HLA-DRB1*04:05 is 69 nM.

One may read the IC50 as the midpoint of a concentration-inhibition curve. Read a high IC50 as lower potency.
